Measurements as given in the supplement of paper PMC10126150.
± gives the standard deviation of the averaged measurements.

System: ATP
Test: switch fluorescence ratio, 500 uM ATP over buffer (Cy3 cluster intensity, sum of 5 cycles each) (fold (ratio)); higher = stronger signal-on switching upon ATP binding; sequences stand for … in TCGTCGGCAGCGTCAGATGTGTATAAGAGACAGTTTTTTTTTTTTTTTTTTTTTTTTT…TC
Conditions: aptamer strand: ATP DNA aptamer (quencher-CACCTGGGGGAGTATTGCGGAGGAAGG + anchor), 100 nM annealed; ATP concentration: 500 uM
Method in brief: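 After annealing to 100 nM quencher-labelled ATP aptamer, Cy3-labelled switching-strand clusters on a modified Illumina MiSeq flow-cell were imaged in selection buffer. A second image followed after 15 min with 500 uM ATP at 22 °C, and five such buffer/ATP cycles were done, each separated by NaOH stripping and re-annealing. The fluorescence ratio, averaged per switch-domain sequence, is summed target-cycle over summed buffer-cycle Cy3 intensity per cluster, with clusters outside 100-1000 RFU excluded.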
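Also: ATP exposure 15 min at 22 °C before imaging.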

With GCCCTGGGTC the switch fluorescence ratio was 1.02 ± 0.06.
In the case of GCCCTTGTAC, the switch fluorescence ratio is reported as 1.2 ± 0.094.
In the case of GCCGAATCTG, the switch fluorescence ratio is reported as 1 ± 0.02.
Sequence GCCGATGCCT has a switch fluorescence ratio of 1.02 ± 0.015.
GCCGCCCTGG showed a switch fluorescence ratio of 1.056 ± 0.0076.
Work on GCCGCCGTAA yielded a switch fluorescence ratio of 1.3 ± 0.079.
For GCCGCGAAGG, the switch fluorescence ratio was 1.02 ± 0.018.
GCCGCGGGTC showed a switch fluorescence ratio of 1.08 ± 0.048.
GCCGGAAGAA was tested, and the switch fluorescence ratio was 1.05 ± 0.037.
In the case of GCCGGACATT, the switch fluorescence ratio is reported as 0.998 ± 0.02.
GCCGGAGCGG was tested, and the switch fluorescence ratio was 1.38 ± 0.062.
GCCGGCAAGT was tested, and the switch fluorescence ratio was 1.02 ± 0.016.
GCCGGCCGGA showed a switch fluorescence ratio of 1.02 ± 0.02.
Work on GCCGGGAGTA yielded a switch fluorescence ratio of 1.004 ± 0.0031.
With GCCGGGCTTG the switch fluorescence ratio was 1.02 ± 0.017.
Sequence GCCGGGGACG has a switch fluorescence ratio of 1.01 ± 0.011.
For GCCGGGGTGA, the switch fluorescence ratio was 1.04 ± 0.043.
In the case of GCCGTAGTGC, the switch fluorescence ratio is reported as 1.01 ± 0.03.
In the case of GCCGTATGCT, the switch fluorescence ratio is reported as 0.9859 ± 0.0092.
In the case of GCCGTCTCCC, the switch fluorescence ratio is reported as 1.03 ± 0.047.
Work on GCCGTGGCGG yielded a switch fluorescence ratio of 0.9753 ± 0.0041.
With GCCGTTGCAT the switch fluorescence ratio was 1.022 ± 0.0019.
Work on GCCTAATAGT yielded a switch fluorescence ratio of 0.98 ± 0.027.
GCCTAATGTT showed a switch fluorescence ratio of 0.957 ± 0.022.
In the case of GCCTACTGTT, the switch fluorescence ratio is reported as 0.9855 ± 0.0094.
Work on GCCTAGGGTT yielded a switch fluorescence ratio of 1 ± 0.023.
Work on GCCTATAGTC yielded a switch fluorescence ratio of 0.991 ± 0.03.
Work on GCCTGAGAGC yielded a switch fluorescence ratio of 0.9754 ± 0.0021.
GCCTGGGGGA was tested, and the switch fluorescence ratio was 1.07 ± 0.12.
For GCCTGGTTGG, the switch fluorescence ratio was 0.995 ± 0.015.
For GCCTGTAGGA, the switch fluorescence ratio was 1.01 ± 0.015.
Work on GCCTGTATAG yielded a switch fluorescence ratio of 0.9958 ± 0.0052.
GCCTGTTTGT showed a switch fluorescence ratio of 0.983 ± 0.02.
With GCCTTAGGGT the switch fluorescence ratio was 1.015 ± 0.0029.
Work on GCCTTAGTGA yielded a switch fluorescence ratio of 0.9959 ± 0.0046.
GCCTTATATG gave a switch fluorescence ratio of 0.968 ± 0.03.
GCCTTCCTTT showed a switch fluorescence ratio of 2.15 ± 0.72.
For GCCTTGACAG, the switch fluorescence ratio was 0.989 ± 0.025.
Work on GCCTTGGACG yielded a switch fluorescence ratio of 1.041 ± 0.0076.
For GCCTTGGGGG, the switch fluorescence ratio was 1 ± 0.028.
GCCTTTCAGA was tested, and the switch fluorescence ratio was 1.005 ± 0.0053.
Sequence GCCTTTTGCG has a switch fluorescence ratio of 1.01 ± 0.018.
Sequence GCGAAGGCGT has a switch fluorescence ratio of 0.9709 ± 0.0033.
GCGAAGTGCG showed a switch fluorescence ratio of 0.979 ± 0.015.
GCGAATCGGT was tested, and the switch fluorescence ratio was 1.01 ± 0.022.
Work on GCGAATGCTG yielded a switch fluorescence ratio of 1.006 ± 0.0089.
For GCGAATTAGA, the switch fluorescence ratio was 1 ± 0.034.
With GCGAATTAGG the switch fluorescence ratio was 0.9719 ± 0.0032.
GCGAATTTTG showed a switch fluorescence ratio of 0.9994 ± 0.0081.
GCGACCCTT showed a switch fluorescence ratio of 1.12 ± 0.037.
Sequence GCGACGAAGG has a switch fluorescence ratio of 1.02 ± 0.012.
For GCGACGGGGA, the switch fluorescence ratio was 1.08 ± 0.021.
GCGAGAATAT showed a switch fluorescence ratio of 1.03 ± 0.043.
In the case of GCGAGAGGAT, the switch fluorescence ratio is reported as 0.985 ± 0.028.
Work on GCGAGATCTT yielded a switch fluorescence ratio of 0.968 ± 0.015.
GCGAGCGATG gave a switch fluorescence ratio of 0.9988 ± 0.0062.
For GCGAGCGCTG, the switch fluorescence ratio was 1.02 ± 0.032.
Work on GCGAGGCCAA yielded a switch fluorescence ratio of 1.28 ± 0.054.
GCGAGGGGTG gave a switch fluorescence ratio of 1.02 ± 0.048.
GCGAGGTCGA was tested, and the switch fluorescence ratio was 0.991 ± 0.038.
Sequence GCGATAGTGG has a switch fluorescence ratio of 0.974 ± 0.011.
GCGATATGTT showed a switch fluorescence ratio of 1.03 ± 0.043.
In the case of GCGATCAGCT, the switch fluorescence ratio is reported as 1.034 ± 0.0022.
Work on GCGATGAGAG yielded a switch fluorescence ratio of 1.03 ± 0.026.
GCGATGGGGC gave a switch fluorescence ratio of 1.04 ± 0.039.
GCGATGTCT was tested, and the switch fluorescence ratio was 0.9976 ± 0.0065.
GCGATTAAAT gave a switch fluorescence ratio of 1.018 ± 0.0019.
Work on GCGATTGATG yielded a switch fluorescence ratio of 1.02 ± 0.026.
GCGATTGTGT showed a switch fluorescence ratio of 1.002 ± 0.0055.
Work on GCGATTTCGG yielded a switch fluorescence ratio of 0.985 ± 0.023.
For GCGCACCACG, the switch fluorescence ratio was 1.06 ± 0.029.
Work on GCGCATGAAG yielded a switch fluorescence ratio of 0.983 ± 0.013.
With GCGCATTTAG the switch fluorescence ratio was 1.15 ± 0.066.
GCGCCCAGTT gave a switch fluorescence ratio of 1.003 ± 0.0029.
Sequence GCGCCCATGA has a switch fluorescence ratio of 0.982 ± 0.043.
Sequence GCGCCGTGGC has a switch fluorescence ratio of 0.99035 ± 0.00081.
Work on GCGCCTTAAA yielded a switch fluorescence ratio of 0.967 ± 0.041.
Work on GCGCTAGATG yielded a switch fluorescence ratio of 1.008 ± 0.0093.
GCGCTAGTTT gave a switch fluorescence ratio of 1 ± 0.016.
Sequence GCGCTCGGCA has a switch fluorescence ratio of 1.019 ± 0.00084.
For GCGCTGGGTG, the switch fluorescence ratio was 1.11 ± 0.16.
In the case of GCGCTGGTTT, the switch fluorescence ratio is reported as 0.99 ± 0.034.
Sequence GCGCTTACTA has a switch fluorescence ratio of 1.31 ± 0.079.
With GCGGAACGGT the switch fluorescence ratio was 1.03 ± 0.034.
Sequence GCGGAAGAGC has a switch fluorescence ratio of 1.06 ± 0.032.
In the case of GCGGAAGGCG, the switch fluorescence ratio is reported as 1 ± 0.018.
GCGGAAGGGT gave a switch fluorescence ratio of 1 ± 0.04.
GCGGACAGTT was tested, and the switch fluorescence ratio was 0.9675 ± 0.0086.
GCGGACGGAC gave a switch fluorescence ratio of 1.08 ± 0.061.
For GCGGCGGGGA, the switch fluorescence ratio was 1.01 ± 0.039.
GCGGCGTGTC was tested, and the switch fluorescence ratio was 1.028 ± 0.0083.
Sequence GCGGCTATGG has a switch fluorescence ratio of 1.01 ± 0.019.
With GCGGCTGGGA the switch fluorescence ratio was 1.047 ± 0.0092.
In the case of GCGGCTGGTT, the switch fluorescence ratio is reported as 0.981 ± 0.05.
Work on GCGGCTTGGG yielded a switch fluorescence ratio of 1.03 ± 0.055.
With GCGGGAAAGT the switch fluorescence ratio was 0.9568 ± 0.009.
GCGGGACCCG showed a switch fluorescence ratio of 1.01 ± 0.016.
GCGGGAGAGG showed a switch fluorescence ratio of 1.02 ± 0.033.
Sequence GCGGGAGGAT has a switch fluorescence ratio of 1.031 ± 0.01.
For GCGGGAGGGA, the switch fluorescence ratio was 1.03 ± 0.015.
Work on GCGGGAGGGT yielded a switch fluorescence ratio of 1.015 ± 0.0081.
Sequence GCGGGATGGC has a switch fluorescence ratio of 1.007 ± 0.0087.
GCGGGATTCG gave a switch fluorescence ratio of 0.998 ± 0.059.
Sequence GCGGGCCTTG has a switch fluorescence ratio of 0.984 ± 0.068.
For GCGGGCGGGA, the switch fluorescence ratio was 1.031 ± 0.0098.
GCGGGCGTCG gave a switch fluorescence ratio of 0.994 ± 0.048.
GCGGGGAACA showed a switch fluorescence ratio of 1 ± 0.017.
Sequence GCGGGGACGT has a switch fluorescence ratio of 1.02 ± 0.027.
GCGGGGAGGG showed a switch fluorescence ratio of 1.05 ± 0.033.
For GCGGGGGGCT, the switch fluorescence ratio was 1.03 ± 0.041.
For GCGGGGGTCA, the switch fluorescence ratio was 0.974 ± 0.05.
For GCGGGGGTGC, the switch fluorescence ratio was 1.03 ± 0.048.
Sequence GCGGGGTAGT has a switch fluorescence ratio of 1.008 ± 0.0044.
GCGGGGTATC gave a switch fluorescence ratio of 1.09 ± 0.18.
With GCGGGGTGGG the switch fluorescence ratio was 0.9835 ± 0.0051.
GCGGGGTGTT gave a switch fluorescence ratio of 1.03 ± 0.013.
With GCGGGGTTAT the switch fluorescence ratio was 1.03 ± 0.011.
GCGGGTATGG was tested, and the switch fluorescence ratio was 1 ± 0.021.
For GCGGGTCGGA, the switch fluorescence ratio was 1.02 ± 0.039.
Work on GCGGGTGAGG yielded a switch fluorescence ratio of 1.02 ± 0.026.
GCGGGTGGAT was tested, and the switch fluorescence ratio was 1.01 ± 0.053.
In the case of GCGGGTGGCT, the switch fluorescence ratio is reported as 1.03 ± 0.019.
GCGGGTGGGA was tested, and the switch fluorescence ratio was 1.02 ± 0.034.
In the case of GCGGGTTAAG, the switch fluorescence ratio is reported as 0.9832 ± 0.0023.
GCGGGTTTTA showed a switch fluorescence ratio of 1.006 ± 0.0083.
In the case of GCGGTAATTT, the switch fluorescence ratio is reported as 1 ± 0.024.
GCGGTACTCT showed a switch fluorescence ratio of 2.27 ± 0.41.
In the case of GCGGTAGAGC, the switch fluorescence ratio is reported as 1.017 ± 0.0099.
Work on GCGGTCAGGG yielded a switch fluorescence ratio of 1.01 ± 0.016.
Sequence GCGGTCATGG has a switch fluorescence ratio of 0.992 ± 0.046.
Sequence GCGGTCCCCG has a switch fluorescence ratio of 1.11 ± 0.031.
In the case of GCGGTGCCTG, the switch fluorescence ratio is reported as 0.977 ± 0.042.
For GCGGTTAGAA, the switch fluorescence ratio was 1.02 ± 0.026.
In the case of GCGGTTCCTG, the switch fluorescence ratio is reported as 0.9829 ± 0.0076.
In the case of GCGGTTGGGG, the switch fluorescence ratio is reported as 1.01 ± 0.018.
Work on GCGGTTGTCG yielded a switch fluorescence ratio of 1.01 ± 0.03.
GCGGTTTCGG showed a switch fluorescence ratio of 0.994 ± 0.024.
GCGGTTTGAC gave a switch fluorescence ratio of 1.03 ± 0.018.
Sequence GCGTAAAGGT has a switch fluorescence ratio of 1.014 ± 0.0064.
With GCGTAACCGT the switch fluorescence ratio was 0.99 ± 0.038.
In the case of GCGTAAGGGT, the switch fluorescence ratio is reported as 0.985 ± 0.012.
GCGTAAGGTG gave a switch fluorescence ratio of 1.1 ± 0.084.
GCGTACTCAA gave a switch fluorescence ratio of 1.11 ± 0.043.
GCGTAGAATC was tested, and the switch fluorescence ratio was 1.02 ± 0.018.
GCGTAGGGCC showed a switch fluorescence ratio of 1.03 ± 0.027.
Sequence GCGTATCTTA has a switch fluorescence ratio of 0.968 ± 0.014.
With GCGTCAATTG the switch fluorescence ratio was 1.02 ± 0.035.
Sequence GCGTCAGGTG has a switch fluorescence ratio of 3.82 ± 0.21.
With GCGTCCGCGG the switch fluorescence ratio was 1.26 ± 0.041.
In the case of GCGTCGGGGA, the switch fluorescence ratio is reported as 1 ± 0.047.
Work on GCGTCTAATC yielded a switch fluorescence ratio of 0.994 ± 0.011.
Work on GCGTGAAGAA yielded a switch fluorescence ratio of 1.03 ± 0.029.
GCGTGATTGC was tested, and the switch fluorescence ratio was 1.06 ± 0.031.
